The supplement of paper PMC10065799, “High-throughput profiling of sequence recognition by tyrosine kinases and SH2 domains using bacterial peptide display” (eLife, 2023)

Experiments:
c-Src SH2 = assay: SH2 binding enrichment of the phosphorylated peptide, bacterial display (enrichment ratio); higher = better substrate or ligand; peptides without Tyr show the background
Grb2 SH2 = Grb2 SH2 (UniProt P62993); assay: as above
SHP2-C SH2 = assay: as above
Fyn = Fyn (UniProt P06241); assay: phosphorylation enrichment, bacterial display (enrichment ratio); higher = better substrate or ligand; peptides without Tyr show the background
Sequence of Fyn (P06241 whole entry, looked up): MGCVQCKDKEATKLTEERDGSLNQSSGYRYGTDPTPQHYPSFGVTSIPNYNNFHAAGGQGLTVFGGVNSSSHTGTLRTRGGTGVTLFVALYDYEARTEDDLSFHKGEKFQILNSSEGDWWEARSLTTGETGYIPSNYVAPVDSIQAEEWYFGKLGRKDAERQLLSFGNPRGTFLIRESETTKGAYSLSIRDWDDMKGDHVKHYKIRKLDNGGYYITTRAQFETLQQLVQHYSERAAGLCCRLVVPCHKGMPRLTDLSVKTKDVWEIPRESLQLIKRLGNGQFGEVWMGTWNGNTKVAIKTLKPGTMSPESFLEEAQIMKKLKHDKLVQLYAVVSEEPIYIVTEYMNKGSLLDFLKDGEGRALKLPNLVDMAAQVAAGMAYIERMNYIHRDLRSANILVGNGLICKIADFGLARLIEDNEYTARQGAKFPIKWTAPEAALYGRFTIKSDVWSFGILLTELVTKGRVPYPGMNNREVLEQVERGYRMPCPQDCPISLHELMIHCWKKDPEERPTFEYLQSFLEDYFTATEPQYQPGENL

MERTK = MERTK (UniProt Q12866); assay: as above
Sequence of MERTK (Q12866 whole entry, looked up): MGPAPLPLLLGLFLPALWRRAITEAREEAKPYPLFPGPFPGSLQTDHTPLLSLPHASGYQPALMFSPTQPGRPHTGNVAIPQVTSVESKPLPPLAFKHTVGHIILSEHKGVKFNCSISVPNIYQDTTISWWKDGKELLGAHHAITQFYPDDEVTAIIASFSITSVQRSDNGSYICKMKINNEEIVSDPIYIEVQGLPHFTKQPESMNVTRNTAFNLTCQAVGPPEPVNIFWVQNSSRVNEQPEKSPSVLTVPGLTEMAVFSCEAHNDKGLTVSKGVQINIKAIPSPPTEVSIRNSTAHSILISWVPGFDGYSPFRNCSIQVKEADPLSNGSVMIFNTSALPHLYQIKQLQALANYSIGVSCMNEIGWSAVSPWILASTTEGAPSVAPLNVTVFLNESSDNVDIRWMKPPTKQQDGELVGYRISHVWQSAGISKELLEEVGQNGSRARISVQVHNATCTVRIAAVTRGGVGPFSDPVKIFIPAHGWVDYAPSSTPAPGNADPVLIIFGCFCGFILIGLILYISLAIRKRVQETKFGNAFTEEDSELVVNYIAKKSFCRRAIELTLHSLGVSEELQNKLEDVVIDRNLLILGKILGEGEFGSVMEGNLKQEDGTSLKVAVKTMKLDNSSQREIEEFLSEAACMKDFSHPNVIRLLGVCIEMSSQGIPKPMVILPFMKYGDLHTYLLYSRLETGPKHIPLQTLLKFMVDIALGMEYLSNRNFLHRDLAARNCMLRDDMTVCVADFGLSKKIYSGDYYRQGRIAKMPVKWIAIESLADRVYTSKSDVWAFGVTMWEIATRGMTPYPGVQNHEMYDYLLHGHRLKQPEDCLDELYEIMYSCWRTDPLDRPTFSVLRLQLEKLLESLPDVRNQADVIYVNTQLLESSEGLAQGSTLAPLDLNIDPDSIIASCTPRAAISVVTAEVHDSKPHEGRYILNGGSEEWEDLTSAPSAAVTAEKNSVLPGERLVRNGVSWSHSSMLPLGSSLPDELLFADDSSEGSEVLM

EPHB2 = EPHB2 (UniProt P29323); assay: as above
Sequence of EPHB2 (P29323 whole entry, looked up): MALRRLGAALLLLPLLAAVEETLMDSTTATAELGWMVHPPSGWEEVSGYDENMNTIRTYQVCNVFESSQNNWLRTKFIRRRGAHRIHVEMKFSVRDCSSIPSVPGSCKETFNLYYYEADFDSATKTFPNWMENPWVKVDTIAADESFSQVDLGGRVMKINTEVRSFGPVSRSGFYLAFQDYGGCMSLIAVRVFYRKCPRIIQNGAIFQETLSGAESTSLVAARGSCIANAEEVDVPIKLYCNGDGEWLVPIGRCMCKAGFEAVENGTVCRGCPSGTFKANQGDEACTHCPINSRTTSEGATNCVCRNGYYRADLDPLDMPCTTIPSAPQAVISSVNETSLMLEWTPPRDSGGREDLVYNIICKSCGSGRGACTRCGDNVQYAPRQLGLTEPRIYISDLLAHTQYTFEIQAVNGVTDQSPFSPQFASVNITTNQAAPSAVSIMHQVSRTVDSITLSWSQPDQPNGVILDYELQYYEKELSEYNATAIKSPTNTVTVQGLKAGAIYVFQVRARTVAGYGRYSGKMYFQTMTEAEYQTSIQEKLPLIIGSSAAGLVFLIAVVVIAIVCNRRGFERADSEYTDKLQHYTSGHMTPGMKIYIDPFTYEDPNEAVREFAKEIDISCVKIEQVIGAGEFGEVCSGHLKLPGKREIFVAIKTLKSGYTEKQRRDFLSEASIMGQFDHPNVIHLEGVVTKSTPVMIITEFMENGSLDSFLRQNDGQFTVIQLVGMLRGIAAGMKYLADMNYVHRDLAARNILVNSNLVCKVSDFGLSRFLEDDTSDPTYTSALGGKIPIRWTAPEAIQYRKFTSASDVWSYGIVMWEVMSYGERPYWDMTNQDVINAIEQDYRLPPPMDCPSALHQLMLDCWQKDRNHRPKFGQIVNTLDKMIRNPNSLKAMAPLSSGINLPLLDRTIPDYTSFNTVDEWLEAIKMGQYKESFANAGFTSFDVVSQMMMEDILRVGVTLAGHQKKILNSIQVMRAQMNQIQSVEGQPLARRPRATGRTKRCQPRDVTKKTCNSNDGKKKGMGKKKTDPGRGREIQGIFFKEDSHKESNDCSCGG

Hck = Hck (UniProt P08631); assay: as above
Sequence of Hck (P08631 whole entry, looked up): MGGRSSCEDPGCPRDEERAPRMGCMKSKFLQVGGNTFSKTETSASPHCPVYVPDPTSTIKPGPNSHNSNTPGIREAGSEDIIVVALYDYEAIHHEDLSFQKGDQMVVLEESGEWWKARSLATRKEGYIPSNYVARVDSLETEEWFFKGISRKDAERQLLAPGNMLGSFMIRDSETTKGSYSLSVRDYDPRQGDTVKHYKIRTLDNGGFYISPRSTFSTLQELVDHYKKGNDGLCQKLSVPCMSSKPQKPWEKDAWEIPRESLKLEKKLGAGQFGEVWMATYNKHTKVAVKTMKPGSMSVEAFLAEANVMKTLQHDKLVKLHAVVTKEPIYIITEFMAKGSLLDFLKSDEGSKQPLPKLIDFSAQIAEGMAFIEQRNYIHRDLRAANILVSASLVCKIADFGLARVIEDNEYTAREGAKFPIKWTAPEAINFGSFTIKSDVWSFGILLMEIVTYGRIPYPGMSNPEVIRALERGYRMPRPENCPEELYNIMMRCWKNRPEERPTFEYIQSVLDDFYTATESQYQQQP

Jak2 = Jak2 (UniProt O60674); assay: as above
c-Src = assay: as above
c-Abl (mouse) = assay: as above
AncSZ = assay: as above
Fer (mouse) = assay: as above
Fes = Fes (UniProt P07332); assay: as above
Sequence of Fes (P07332 whole entry, looked up): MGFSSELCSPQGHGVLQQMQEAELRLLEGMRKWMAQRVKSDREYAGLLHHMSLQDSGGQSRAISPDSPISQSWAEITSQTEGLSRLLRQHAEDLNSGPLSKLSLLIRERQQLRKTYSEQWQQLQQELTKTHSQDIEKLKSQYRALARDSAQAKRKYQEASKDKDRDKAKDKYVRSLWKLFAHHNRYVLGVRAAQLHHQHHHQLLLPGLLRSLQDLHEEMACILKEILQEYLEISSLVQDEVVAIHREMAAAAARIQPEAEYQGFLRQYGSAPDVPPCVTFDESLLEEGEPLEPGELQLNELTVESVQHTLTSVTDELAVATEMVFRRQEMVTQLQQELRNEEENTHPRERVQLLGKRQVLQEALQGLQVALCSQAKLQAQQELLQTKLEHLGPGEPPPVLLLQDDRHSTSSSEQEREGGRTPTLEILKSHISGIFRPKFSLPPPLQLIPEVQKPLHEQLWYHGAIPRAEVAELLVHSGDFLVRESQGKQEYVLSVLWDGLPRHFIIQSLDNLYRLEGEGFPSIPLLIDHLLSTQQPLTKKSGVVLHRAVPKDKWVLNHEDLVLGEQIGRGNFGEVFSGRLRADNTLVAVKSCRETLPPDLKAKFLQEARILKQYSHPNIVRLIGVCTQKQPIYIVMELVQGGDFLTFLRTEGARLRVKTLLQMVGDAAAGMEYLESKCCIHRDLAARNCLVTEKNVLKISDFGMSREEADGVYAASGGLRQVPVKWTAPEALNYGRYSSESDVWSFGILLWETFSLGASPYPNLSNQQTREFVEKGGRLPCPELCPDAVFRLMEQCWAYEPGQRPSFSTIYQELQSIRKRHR

FGFR3 = FGFR3 (UniProt P22607); assay: as above
Sequence of FGFR3 (P22607 whole entry, looked up): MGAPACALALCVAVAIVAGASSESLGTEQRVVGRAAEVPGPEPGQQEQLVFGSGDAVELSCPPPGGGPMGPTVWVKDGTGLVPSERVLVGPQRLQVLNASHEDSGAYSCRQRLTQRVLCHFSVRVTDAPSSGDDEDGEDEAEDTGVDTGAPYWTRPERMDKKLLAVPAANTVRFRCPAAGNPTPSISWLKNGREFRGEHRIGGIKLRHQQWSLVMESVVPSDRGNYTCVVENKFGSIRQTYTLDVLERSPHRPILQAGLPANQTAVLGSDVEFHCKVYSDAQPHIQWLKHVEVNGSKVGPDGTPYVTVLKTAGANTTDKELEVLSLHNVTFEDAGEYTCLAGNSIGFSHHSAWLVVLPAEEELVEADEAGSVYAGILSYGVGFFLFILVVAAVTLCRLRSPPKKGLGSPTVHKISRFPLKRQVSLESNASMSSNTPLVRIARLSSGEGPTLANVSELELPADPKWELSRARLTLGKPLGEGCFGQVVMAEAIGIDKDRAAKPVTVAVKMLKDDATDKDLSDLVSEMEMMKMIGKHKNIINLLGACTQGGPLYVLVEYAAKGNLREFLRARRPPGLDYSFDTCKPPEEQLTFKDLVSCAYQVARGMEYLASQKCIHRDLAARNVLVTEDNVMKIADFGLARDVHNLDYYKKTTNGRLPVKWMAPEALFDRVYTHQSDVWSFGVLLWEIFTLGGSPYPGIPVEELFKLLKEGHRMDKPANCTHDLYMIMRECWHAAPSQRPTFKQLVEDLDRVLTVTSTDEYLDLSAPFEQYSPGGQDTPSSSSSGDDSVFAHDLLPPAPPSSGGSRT

FGFR1 = FGFR1 (UniProt P11362); assay: as above
EPHB1 = EPHB1 (UniProt P54762); assay: as above
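Throughout, for SH2 binding enrichment of the phosphorylated peptide, bacterial display: peptide library displayed on the E. coli surface as eCPX fusions, selected cells deep-sequenced, score is each peptide's frequency after selection divided by its frequency in the input.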
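Throughout, for phosphorylation enrichment, bacterial display: 11-residue human phosphosite peptides and single-mutation variants displayed on the E. coli surface, counted by deep sequencing, each peptide's frequency after selection divided by its frequency in the unselected input library; frequency after pTyr selection over input frequency; kinase dosed for 20-30% of maximal phosphorylation in three min.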

Sequence of Grb2 SH2 (P62993 whole entry, looked up): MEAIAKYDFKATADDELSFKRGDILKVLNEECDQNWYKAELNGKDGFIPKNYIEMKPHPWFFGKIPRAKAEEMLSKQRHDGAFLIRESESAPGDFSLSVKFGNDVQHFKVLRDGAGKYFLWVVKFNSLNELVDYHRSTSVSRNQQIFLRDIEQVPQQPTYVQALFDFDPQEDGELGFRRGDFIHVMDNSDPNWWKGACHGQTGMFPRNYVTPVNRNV

Sequence	SH2 binding enrichment (c-Src SH2)	SH2 binding enrichment (Grb2 SH2)	SH2 binding enrichment (SHP2-C SH2)	phosphorylation enrichment (Fyn)	phosphorylation enrichment (MERTK)	phosphorylation enrichment (EPHB2)	phosphorylation enrichment (Hck)	phosphorylation enrichment (Jak2)	phosphorylation enrichment (c-Src)	phosphorylation enrichment (c-Abl (mouse))	phosphorylation enrichment (AncSZ)	phosphorylation enrichment (Fer (mouse))	phosphorylation enrichment (Fes)	phosphorylation enrichment (FGFR3)	phosphorylation enrichment (FGFR1)	phosphorylation enrichment (EPHB1)
WHHIFYNELRV [ACTG1_Y91_T89I]	0.512	0.701	0.638	0.388	0.444	0.725	0.569	1.13	0.407	0.805	1.14	0.536	1.33	0.911	0.527	0.663
SLIERYEPSET [PLCD1_Y258]	0.759	1	0.62	0.502	0.727	0.602	0.54	0.966	0.497	0.717	1.07	0.574	1.1	0.678	0.661	0.742
IGHGSYAKVLL [PRKCZ_Y263_R260H]	4.8	0.868	26.8	0.624	0.57	0.656	0.523	0.662	0.454	0.599	0.728	0.68	0.805	0.635	0.517	0.536
LTQRTYMSENA [GPAA1_Y49]	0.422	0.783	0.801	0.376	0.47	0.528	0.455	0.65	0.429	0.488	0.636	0.429	0.613	0.485	0.452	0.364
FCRIMYDIFPF [INTS13_Y67_YF]	0.8	0.93	0.862	1.31	4.83	2.61	3.11	1.57	3	1.38	1.71	1.18	1.74	0.743	0.531	2.66
RLAQRYLIWEC [SCN5A_Y694]	0.691	0.982	0.655	0.595	0.609	0.914	0.679	1.34	0.492	0.86	1.09	0.546	1.66	0.841	0.647	0.943
EREYKYDAHNY [OAT_Y50_G51D]	0.703	0.781	0.74	0.434	0.429	0.575	0.498	0.8	0.367	0.705	0.757	0.559	1	0.574	0.445	0.412
EPYELYCEMGS [CBL_Y371_Q367P]	0.695	1.11	0.564	4.13	3.54	6.42	4.22	1.61	4.82	2.36	3.71	3.52	1.74	3.14	3.54	5.73
LPPREYVVVPS [CAPN1_Y494_G492R]	1.17	0.918	1.03	1.41	0.631	4.02	1.73	1.04	0.48	0.726	2.29	1.73	2.17	2.46	2.83	3.78
CTTIHYSYMCN [TP53_Y234_N235S]	5.17	1.58	6.33	0.465	0.874	0.628	0.53	0.663	0.526	0.627	0.897	1.01	0.916	0.724	0.667	0.524
LCRYGYANTSE [SI_Y1233]	2.24	2	0.85	0.688	1.15	0.661	0.772	1.11	0.789	0.932	1.31	0.746	1.41	1.36	0.656	0.78
EVTQDYGLDPK [FH_Y110_N107T]	0.461	0.672	0.648	0.513	0.528	0.637	0.574	1.06	0.504	0.842	1.32	0.625	1.36	0.902	0.558	0.606
ADELEYSRTGL [MMUT_Y287_G284E]	0.457	0.747	0.623	0.482	0.407	0.568	0.517	0.741	0.464	0.644	1.11	0.437	0.972	0.645	0.402	0.596
EIKLAYRRRPP [GRIN2B_Y1109_E1106K]	0.362	0.708	0.525	0.526	0.652	0.617	0.789	0.861	0.885	0.756	0.735	0.98	0.532	0.584	0.537	0.568
ALAAPYVLYPG [CEFIP_Y1332]	0.7	0.747	0.602	0.694	0.597	0.488	0.794	0.845	4.26	0.569	0.769	0.54	0.799	2.55	3.98	0.565
EVVGKYSVHNA [MLH1_Y183_R182K]	0.455	0.954	0.842	0.428	0.374	0.363	0.388	0.569	0.438	0.527	0.612	0.426	0.697	0.449	0.352	0.363
